In one test the test system is neural stem cell. Description: DA and 5-HT in dialysate of neural stem cell medium after NGF induction (microdialysis, HPLC-ED). It counts as cell-based. Particulars: after induction with polyornithine/laminin-coating plate and NGF of neural stem cell. Here is the method: (§1) A microdialysis system consists of a basic microdialysis pump (CMA/100, CMA, Stockholm, Sweden), a fraction collector (CMA/140, CMA), and a microdialysis probe cemented to a Petri dish (FIG. 3). The dialysis probe was made of a dialysis membrane 30 mm in length, 150 μm in outer diameter, and a nominal molecular weight cutoff of 13,000. Ringer solution (8.6 g/L NaCl, 0.3 g/L KCl, and 0.33 g/L CaCl2) was perfused through the probe at a flow rate of 2 μl/min. Microdialysate samples were collected every 10 min. Each microdialysate of 10 μl was injected manually into the chromatographic system and was assayed on the same sampling day. The Liquid chromatography and electrochemical detection contains a model HTEC-500 LC-ED system (Eicom, Kyoto, Japan), consisting of a three-electrode cell with Ag/AgCl as the reference electrode, a counter-electrode, and a graphite electrode as the working electrode, were used to measure dopamine (DA) and serotonin (5-HT). The experiment employed a graphite working electrode with a 25-μm gasket with the applied potential set at +450 mV versus Ag/AgCl. The column used for the separation of DA and 5-HT was a PP-ODS column (4.6×30 mm, Eicom) at room temperature (25° C.). […]

Another test relates to PC-12 cells. As to the kind of experiment: DA and 5-HT in dialysate of PC-12 cells medium after NGF induction (HPLC-ED). Particulars: after induction with NGF of PC-12 cells. It counts as cell-based. How it is done:
as §1

In test [1] the test system is LPS-treated NSCs. Description: LPS-induced apoptotic activity in NSCs, caspase 8 and 3 ELISA. It counts as cell-based, rat. Particulars: vs only LPS-treated NSCs; p<0.05. Here is the method:
(§2) IM was purchased from Sigma Chem. Co., St Louis, Mo., USA. NSCs were seeded on 24-well plates at a density of 2×10^4 cells/well in medium, followed by methyl thiazol tetrazolium assay (MTT assay) (Sigma-Aldrich Co., St Louis, Mo., USA) for cell viability. NSCs were incubated with 0.25 mg/ml MTT for 4 hours at 37° C. and the reaction was terminated by the addition of 100% isopropanol. The amount of MTT fromazon product was determined using a microplate reader and the absorbance was measured at 560 nm (SpectraMax 250, Molecular Devices, Sunnyvale, Calif., USA). NSCs were exposed to 0, 1, 2, 5, 10, 20, 30, 40, 50, 100, 200, and 300 μM of IM for 1, 3, 5, and 7 days, respectively. The activities of caspases 8 and 3 (Medical and Biological Laboratories Co., Ltd., Nagoya, Japan), and the concentration of IL-6, IL-1 and TNF-α (Pharmingen, San Diego, Calif., USA) were determined by ELISA kits and quantified by reading at 490 nm (MRX; Dynatech Laboratories, Chantilly, Va., USA). Each individual sample was analyzed in triplicate.
(§3) Double-stranded, short interfering RNA (siRNA) of BDNF and Bcl-2 were chemically synthesized by Ambion Inc., Austin, Tex., USA). The sense and antisense sequences of BDNF were designed as follows: Sense: […]tt; Antisense: AGCTTAAAAAGAG CTGtt, starting from nucleotide 137 of the Bcl-2 sequence (accession number L14680). The sense and antisense sequences of Bcl-2 were designed as follows: Sense: GCGCUGGAUAUAACUUCUUtt; Antisense: AAGAAGUUAUAUC CAGCGCtt, starting from nucleotide 137 of the Bcl-2 sequence (accession number L14680). In this test, the siRNA control used was siRNA-Cy3 (QIAGEN; sense sequence: UUCUCCGAACGUGU CACGUdTdT-3′-Cy3 and the complement 5′-ACGUGACACGUUCGGAGAAdTdT-3′-Cy3) as an irrelevant control. The transfection of siRNA was performed using Lipofectamine 2000 (Invitrogen, Carlsbad, Calif., USA) according to the manufacturer's instructions. In brief, cells were harvested with 0.25% trypsin, 1 mM ethylenediaminetetraacetic acid (EDTA) in phosphate buffered saline (PBS) without Ca^2+ and Mg^2+, and plated in six-well plates at 10^5 per cm^2. Then 3.5 μl siRNA (100 μM solution) was mixed with 125 μl serum-free culture medium for 5 minutes at room temperature. During this incubation period, 5 μl of Lipofectamine 2000 was diluted in 125 μl serum-free culture medium. These two mixtures were combined, mixed gently, and incubated for 20 minutes at room temperature for complex formation. This 250 μl of siRNA-Lipofectamine mixture was then added into the cells in a final volume of 2.5 ml per well. The transfected cells were cultured and fed daily with fresh medium until they were assayed.

The test system of test [2] is LPS-treated NSCs. Description: ELISA of IL-1β, IL-6 and TNF-α in LPS-treated NSCs. In kind it is cell-based, rat. Particulars: vs only LPS-treated NSCs; IM 3 μM; p<0.05. Here is the method: as §2, §3
The test system of the next test is Bcl-2. Description: Bcl-2 protein expression in NSCs by western blot and immunocytochemistry. In kind it is cell-based, rat. Particulars: treatment with either agent alone. How it is done:
After the treatment with IM, the cell lysates of the NSCs were collected and the concentration of protein was determined by using the Protein Assay kit (Bio-Rad, Hercules, Calif., USA). Cell extracts with sample buffer were boiled for 5 minutes and then separated by 10% SDS-PAGE gel. After electrophoresis, the gel was transferred onto a PVDF membrane for immunoblotting. The membrane was first blocked by incubation in non-fat milk at room temperature for 2 hours, then incubated with anti-Bcl-2 antibody (Upstate Biotechnology Inc, Waltham, Mass., USA), and anti-β actin (Chemicon International Inc, Temecula, Calif., USA) for 2 hours at room temperature, washed five times with Tris-Buffered Saline Tween-20 (TBST), and then incubated further at room temperature with horseradish peroxidase-conjugated secondary antibody for 2 hours. Then the membrane was washed six times with TBST and specific bands were made visible by chemiluminescence (Santa Cruz Biotechnology, Santa Cruz, Calif., USA).
as §3
An avidin-biotin complex method was used for the immunohistochemical staining in the differentiated NSCs. Following washes with the 3% hydrogen peroxide, sodium azide and antigens were retrieved using a microwave. Each slide was then treated with antibodies for Bcl-2 (Upstate Biotechnology, Waltham, Mass., USA), Nestin (Chemicon, Temecula, Calif., USA), 4′, 6-diamidino-2-phenylindole (DAPI; Chemicon, Temecula, Calif., USA) and MAP2 (Chemicon, Temecula, Calif., USA). Immunoreactive signals were detected with a mixture of biotinylated rabbit anti-mouse IgG and Fluoresave (Calbiochem, La Jolla, Calif., USA) under confocal microscopy (Olympus, FV300). Each individual sample was analyzed in triplicate. Furthermore, apoptotic cells were identified by the TUNEL method (In Situ Cell Death Detection Kit, POD, Roche Boehringer Mannheim Corp., IN, USA) as described in Chiou et al., J. Immunol. 167, 4098-4103, 2001. Briefly, the cells with cover slips were washed with 1× phosphate buffered saline (PBS), fixed with 4% of paraformaldehyde for 10 minutes, permeabilized with 0.1% of triton X-100 for 5 mins, and incubated with the TUNEL reagent provided for 1 hour. Chromogenic development was then applied with 3-amino-9-ethyl-carbazole, and slides were counterstained with H & E stain. […]

Test [3] concerns LPS-treated NSCs. As to the kind of experiment: Cell survival rate of LPS-treated NSCs. Particulars: vs only LPS-treated NSCs; LPS 100 ng/ml. It counts as cell-based, rat. How it is done: as §2
as §3, with “Then 3.5 μl siRNA (100 μM solution) was mixed with 125 μl serum-free culture medium for 5 minutes at room temperature. During this incubation period, 5 μl of Lipofectamine 2000 was diluted in 125 μl serum-free culture medium. These two mixtures were combined, mixed gently, and incubated for 20 minutes at room temperature for complex formation. This 250 μl of siRNA-Lipofectamine mixture was then added into the cells in a final volume of 2.5 ml per well. The transfected cells were cultured and fed daily with fresh medium until they were assayed.” left out

Regarding “NGF: NGF used to induce neural stem cells / PC-12 cells”, the “5-HT concentration in dialysate” value with neural stem cell (basal 0.18 ng/ml) stood at 2.84 ng/mL; with PC-12 cells (basal 0.18 ng/ml), 2.94 ng/mL. The “DA concentration in dialysate” value stood at 46.9 ng/mL with neural stem cell (basal 6.04 ng/ml) and 50.06 ng/mL in the test on PC-12 cells (basal 6.04 ng/ml).

B1: BDNF: BDNF recombinant protein (protein, UniProt P23560 19-247, looked up)
Neurotrophic factor BDNF …: APMKEANIRGQGGLAYPGVRTHGTLESVNGPKAGSRGLTSLADTFEHVIEELLDEDQKVRPNEENNKDADLYTSRVMLSSQVPLEPPLLFLLEEYKNYLDAANMSMRVRRHSDPARRGELSVCDSISEWVTAADKKTAVDMSGGTVTVLEKVPVSKGQLKQYFYETKCNPMGYTKEGCRGIDKRHWNSQCRTTQSYVRALTMDSKKRIGWRFIRIDTSCVCTLTIKRGR
In the case of B1, the “apoptotic activities in LPS-treated NSCs” value with LPS-treated NSCs [1] is “significantly inhibited”. Moreover, in the test on LPS-treated NSCs [2], the “IL-1β production in LPS-treated NSCs” value is listed as “significantly inhibited”, the “IL-6 production in LPS-treated NSCs” value was “significantly inhibited” and the “TNF-α production in LPS-treated NSCs” value was “significantly inhibited”. In addition, the “Bcl-2 expression in NSCs” value in the test with Bcl-2 is recorded as “activate”. For the same molecule, the “cell survival rate in LPS-treated NSCs” value in the test on LPS-treated NSCs [3] is reported as “significantly increases”.

(Values after patent US20090105562A1, “SYSTEM AND METHODS FOR SCREENING OR ANALYZING TARGETS” (TAIPEI VETERANS GENERAL HOSPITAL, priority 2007, published 2009).)
